Test results published in patent US20120114652A1 (AbbVie / Abbott, published 2012).

T1: mouse PAI-1 (mouse, UniProt P22777 24-401)
T1 sequence: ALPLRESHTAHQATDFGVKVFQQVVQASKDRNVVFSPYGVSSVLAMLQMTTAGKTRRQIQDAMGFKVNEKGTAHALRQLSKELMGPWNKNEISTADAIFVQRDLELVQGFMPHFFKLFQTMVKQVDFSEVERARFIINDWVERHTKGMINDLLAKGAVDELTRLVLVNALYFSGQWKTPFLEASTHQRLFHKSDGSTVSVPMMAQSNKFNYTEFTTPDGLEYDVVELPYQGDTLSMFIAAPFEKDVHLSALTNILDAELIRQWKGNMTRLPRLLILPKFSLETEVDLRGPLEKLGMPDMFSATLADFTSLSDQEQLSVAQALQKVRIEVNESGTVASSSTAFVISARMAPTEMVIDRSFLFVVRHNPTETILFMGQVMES

T2: rat PAI-1 (rat, UniProt P20961 24-402)
T2 sequence: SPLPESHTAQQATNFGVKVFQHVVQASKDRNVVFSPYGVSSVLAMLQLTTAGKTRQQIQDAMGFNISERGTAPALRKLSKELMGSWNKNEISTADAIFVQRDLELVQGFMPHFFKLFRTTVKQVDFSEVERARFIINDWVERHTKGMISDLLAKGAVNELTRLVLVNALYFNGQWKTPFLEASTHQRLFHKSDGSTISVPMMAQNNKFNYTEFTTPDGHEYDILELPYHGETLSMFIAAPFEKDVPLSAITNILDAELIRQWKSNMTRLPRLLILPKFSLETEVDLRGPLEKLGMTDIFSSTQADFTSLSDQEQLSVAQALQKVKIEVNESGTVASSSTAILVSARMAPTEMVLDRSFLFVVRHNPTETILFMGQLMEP

T3: rabbit PAI-1 (rabbit)
T3 chain: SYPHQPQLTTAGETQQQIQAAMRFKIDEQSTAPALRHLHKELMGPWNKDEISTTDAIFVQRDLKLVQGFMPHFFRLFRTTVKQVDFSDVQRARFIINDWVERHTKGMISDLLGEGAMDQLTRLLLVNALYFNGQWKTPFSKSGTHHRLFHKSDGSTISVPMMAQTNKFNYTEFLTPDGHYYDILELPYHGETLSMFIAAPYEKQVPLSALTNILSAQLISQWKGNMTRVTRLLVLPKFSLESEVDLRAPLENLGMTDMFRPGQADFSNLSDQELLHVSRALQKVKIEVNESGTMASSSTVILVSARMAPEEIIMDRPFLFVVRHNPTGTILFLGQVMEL


Experiments:
[1] = target: glycosylated active human PAI-1 produced by CHO cells (human, UniProt P05121 24-402, N-glycosylated (CHO-produced)); assay: cell-based or functional assay
[2] = target: T4, human PAI-1, active, wild-type, non-glycosylated (E. coli-derived) (human, UniProt P05121 24-402); assay: cell-based or functional assay
[3] = target: T5, cynomolgus PAI-1 (cynomolgus, UniProt P05121 24-402 (human entry), limits assumed); assay: cell-based or functional assay
[4] = target: T1, mouse PAI-1; assay: cell-based or functional assay
[5] = target: T2, rat PAI-1; assay: cell-based or functional assay
[6] = target: T4, human PAI-1, active, wild-type, …; assay: cell-based or functional assay; remark: listed apart in the source
[7] = target: T1, mouse PAI-1; assay: cell-based or functional assay; remark: listed apart in the source
[8] = target: T2, rat PAI-1; assay: cell-based or functional assay; remark: listed apart in the source
[9] = target: T3, rabbit PAI-1; assay: competition ELISA (DELFIA), IgG coated, competitor titrated against biotinylated active human PAI-1
[10] = target: T2, rat PAI-1; assay: cell-based or functional assay; remark: listed apart in the source
[11] = target: T4, human PAI-1, active, wild-type, …; assay: cell-based or functional assay; remark: listed apart in the source
[12] = target: T5, cynomolgus PAI-1; assay: cell-based or functional assay; remark: listed apart in the source

| Binder | IC50 chromogenic, hu glyco [1] [nM] | IC50 chromogenic [2] [nM] | IC50 chromogenic [3] [nM] | IC50 ratio cyno/human [3] | IC50 chromogenic [4] [nM] | IC50 ratio mouse/human [4] | IC50 chromogenic [5] [nM] | IC50 ratio rat/human [5] | IC50 HT-1080 Exo PAI-1 [6] [nM] | IC50 HT-1080 Exo PAI-1 [7] [nM] | IC50 HT-1080 Exo PAI-1 [8] [nM] | IC50 ratio rabbit/wt [9] | fold higher IC50 in the rat chromogenic assay, against the human assay [10] [fold] | IC50 chromogenic (FIG. 2a) [11] [nM] | IC50 chromogenic (FIG. 2b) [12] [nM] |
| --- | --- | --- | --- | --- | --- | --- | --- | --- | --- | --- | --- | --- | --- | --- | --- |
| Antibody 01, IgG1, not germlined (antibody, V domains shown) VH: QVQLVQSGAEVKKPGSSVKVSCKASGGTFSSYAISWVRQAPGQGLEWMGGIIPIFGTANYAQKFQGRVTITADESTSTAYMELSSLRSEDTAVYYCAREKRQWLEGHFDYWGRGTLVTVSS VL: DIQMTQSPSTLSASVGDRVTITCRASEGIYRSLAWYQQKPGKAPKLLIYKASSLASGVPSRFSGSGSGTEFTLTISSLQPDDFATYYCQQYSNYPLTFGGGTKVEIK | 1.7 | 1.5 | 0.7 | 0.4 | 30 | 20 | 99.3 | 66.2 | 11.2 | 15.8 |  |  |  |  |  |
| Antibody 02, IgG1, not germlined (antibody, V domains shown) VH: QVQLVQSGAEVKKPGSSVKVSCKASGGTFSSYAISWVRQAPGQGLEWMGGIIPTFGTANYAQKFQGRVTITADESTSTAYMELSSLRSEDTAVYYCAREKRQWLEGHFDYWGRGTLVTVSS VL: DIQMTQSPSTLSASVGDRVTITCRASEGIYHSLAWYQQKPGKAPKLLIYKASSLASGVPSRFSGSGSGTEFTLTISSLQPDDFATYYCQQYSDYPLTFGGGTKVEIK | 1.5 | 1.6 |  |  | 167 | 104 | 510 | 317 | 8.7 | 10.9 |  |  |  |  |  |
| Antibody 01, IgG4, not germlined (antibody, V domains shown, whole IgG4; also called Ab 01) VH: QVQLVQSGAEVKKPGSSVKVSCKASGGTFSSYAISWVRQAPGQGLEWMGGIIPIFGTANYAQKFQGRVTITADESTSTAYMELSSLRSEDTAVYYCAREKRQWLEGHFDYWGRGTLVTVSS VL: DIQMTQSPSTLSASVGDRVTITCRASEGIYRSLAWYQQKPGKAPKLLIYKASSLASGVPSRFSGSGSGTEFTLTISSLQPDDFATYYCQQYSNYPLTFGGGTKVEIK |  |  |  |  |  |  |  |  |  |  |  | 9 |  |  |  |
| Antibody 02, IgG4, not germlined (antibody, V domains shown, whole IgG4; also called Ab 02) VH: QVQLVQSGAEVKKPGSSVKVSCKASGGTFSSYAISWVRQAPGQGLEWMGGIIPTFGTANYAQKFQGRVTITADESTSTAYMELSSLRSEDTAVYYCAREKRQWLEGHFDYWGRGTLVTVSS VL: DIQMTQSPSTLSASVGDRVTITCRASEGIYHSLAWYQQKPGKAPKLLIYKASSLASGVPSRFSGSGSGTEFTLTISSLQPDDFATYYCQQYSDYPLTFGGGTKVEIK |  |  |  |  |  |  |  |  |  |  |  | 4.8 |  |  |  |
| Antibody 09, scFv (scFv, V domains shown) VH: QVQLQQSGAEVKKPGSSVKVSCKASGGTFSSYAISWVRQAPGQGLEWMGGIIPAFDTANYAQKFQGRVTITADESTSTAYMELSGLRSEDTAVYYCAREKRQWLEGHFDYWGRGTPVTVSS VL: DIQMTQSPSFLSASIGDRVTITCQASEGIYHNLAWYQQKPGKAPKLLIYRASSLASGAPSRFSGSGSGTDFTLTISSLQPDDFATYYCQQYSNYPLTFGGGTKLEIK |  |  | 0.7 |  |  |  | 29.7 |  | 23 | 21 | 52.7 |  |  |  |  |

Other lines, results leading:

| IC50 chromogenic, hu glyco [1] [nM] | IC50 chromogenic [2] [nM] | IC50 chromogenic [3] [nM] | IC50 ratio cyno/human [3] | IC50 chromogenic [4] [nM] | IC50 ratio mouse/human [4] | IC50 chromogenic [5] [nM] | IC50 ratio rat/human [5] | IC50 HT-1080 Exo PAI-1 [6] [nM] | IC50 HT-1080 Exo PAI-1 [7] [nM] | IC50 HT-1080 Exo PAI-1 [8] [nM] | IC50 ratio rabbit/wt [9] | fold higher IC50 in the rat chromogenic assay, against the human assay [10] [fold] | IC50 chromogenic (FIG. 2a) [11] [nM] | IC50 chromogenic (FIG. 2b) [12] [nM] | Binder |
| --- | --- | --- | --- | --- | --- | --- | --- | --- | --- | --- | --- | --- | --- | --- | --- |
|  |  | 1.3 |  | 4.9 |  |  |  | 19.1 | 18.1 | 42.4 |  |  |  |  | Antibody 20, scFv (scFv, V domains shown) VH: QVQLQQSGAEVKKPGSSVKVSCKASGGTFSSYAISWVRQAPGQGLEWMGGIIPTFGTANYAQKFQGRVTITADESTSTAYMELSSLRSEDTAVYYCAREKRQWLEGHFDYWGRGTLVTVSS VL: DIQMTQSPSTLSASVGDRVTITCRASEGIYHELAWYQQKPGKAPKLLIYRASSLASGVPSRFSGSRSGTEFTLTISSLQPDDFATYYCQQYSDYPLTFGGGTKVEIK |
|  | 7.2 | 2.2 | 0.3 | 66.9 | 9.3 | 64.2 | 8.9 | 36 | 37 | 57 |  |  |  |  | Antibody 15, scFv (scFv, V domains shown) VH: QVQLQQSGAEVKKPGSSVKVSCKASGGTFSSYAISWVRQAPGQGLEWMGGIIPTFGTANYAQKFQGRVTITADESTSTAYMELSGLRSEDTAVYYCAREKRQWLEGHFDYWGRGTPVTVSS VL: DIQMAQSPSFLSASIGDRVTITCRASEGIYHNLAWYQQKPGKAPKLLIYRASSLASGAPSRFSGSGSGTDFTLTISSLQPDDFATYYCQQYSNYPLTFGGGTKLEIR |
|  | 1.3 | 0.5 | 0.4 | 319 | 255 | 238 | 190 |  |  | 37 |  | ~180 |  |  | Antibody 18, scFv (scFv, V domains shown) VH: QVQLQQSGAEVKKPGSSVKVSCKASGGTFSSYAISWVRQAPGQGLEWMGGIIPTFGTANYAQKLQGRVTITADESTSTAYMELSGLRSEDTAVYYCAREKRQWLEGHFDYWGRGTPVTVSS VL: DIQMTQSPSFLSASIGDRVTITCRASEGIYHALAWYQQKPGKAPKLLIYRASSLASGAPSRFSGSGSGTDFTLTISSLQPDDFATYYCQQYSNYPLTFGGGTKLEIK |
|  |  |  |  | 4.3 |  | 5.6 |  | 16.9 | 17.6 | 52.6 |  |  | 3.6 | 0.8 | Antibody 16, scFv (scFv, V domains shown) VH: QVQLVQSGAEVKKPGSSVKVSCKASGGTFSSYAISWVRQAPGQGLEWMGGIIPTFGTANYAQKFQGRVTITADESTSTAYMELSSLRSEDTAVYYCAREKRQWLEGHFDYWGRGTLVTVSS VL: DIQMTQSPSTLSASVGDRVTITCRASESIYHSLAWYQQKPGKAPKLLIYKASSLASGVPSRFSGSRSGTEFTLTISSLQPDDFATYYCQQYSNYPLTFGGGTKVEIK |
|  |  | 2.2 |  |  |  | 49.8 |  | 18.8 | 16.4 | 33.8 |  |  |  |  | Antibody 27, scFv (scFv, V domains shown) VH: QVQLQQSGAEVKKPGSSVKVSCKASGGAFSSYAISWVRQAPGQGLEWMGGIIPTFGTANYAQKFQGRVTITADESTSTAYMELSGLRSEDTAVYYCAREKRQWLEGHFDYWGRGTPVTVSS VL: DIQMTQSPSFLSASIGDRVTITCRASEGIYHNLAWYQQKPGKAPKLLIYRASSLASGAPSRFSGSGSGTDFTLTISSLQPDDFATYYCQQYSNYPLTFGGGTKLEIK |
